Patent US20220402979A1

Key:
Human Tau2N4R = assay: SPR; literature table, Jadhav et al. 2019; AFFINITY 'nd.'
[1] = target: recombinant human mis-disordered tau protein (tau151-391/4R) (human) (UniProt P10636); assay: reference line in the plot 'Affinity against pathological tau', axis KD (nM); SPR (Example 10)
recombinant human mis-disordered tau protein (tau151-391/4R) (human), sequence (P10636 468-708): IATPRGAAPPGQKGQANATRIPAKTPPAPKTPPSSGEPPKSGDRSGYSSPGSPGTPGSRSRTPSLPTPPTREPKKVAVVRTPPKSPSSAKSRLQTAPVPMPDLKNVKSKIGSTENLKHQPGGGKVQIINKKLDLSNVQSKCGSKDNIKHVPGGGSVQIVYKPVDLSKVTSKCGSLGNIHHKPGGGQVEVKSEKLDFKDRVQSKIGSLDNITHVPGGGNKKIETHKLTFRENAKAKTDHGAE

Human Tau2N4R, sequence (single chain, as listed by the source limits assumed): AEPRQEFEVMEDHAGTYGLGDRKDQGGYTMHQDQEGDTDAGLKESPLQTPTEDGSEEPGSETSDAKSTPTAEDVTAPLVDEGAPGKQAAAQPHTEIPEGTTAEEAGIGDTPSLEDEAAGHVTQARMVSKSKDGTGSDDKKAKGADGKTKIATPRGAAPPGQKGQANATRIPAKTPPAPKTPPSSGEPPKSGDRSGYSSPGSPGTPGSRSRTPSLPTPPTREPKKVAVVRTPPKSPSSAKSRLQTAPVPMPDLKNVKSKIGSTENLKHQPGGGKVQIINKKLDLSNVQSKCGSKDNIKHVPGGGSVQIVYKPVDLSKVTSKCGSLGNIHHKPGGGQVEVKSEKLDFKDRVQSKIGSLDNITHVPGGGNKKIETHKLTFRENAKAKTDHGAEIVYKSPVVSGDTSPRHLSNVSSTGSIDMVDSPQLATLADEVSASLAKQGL

AVIDITY (Human Tau2N4R)	Kd [1]	Substance
7000 pM		HJ9.4 (antibody)
0.4 pM		HJ8.5 (antibody)
100 pM		HJ9.3 (antibody)
	0.4 nM	AADvac2
